Earlier results as cited in publication PMC12930849.
“And” between values parts separate entries of the source, which are not always exact repeats. Identical values can stand only once.

What was measured:
Assay in all cases: NMR
Glu7 = Glu7 (UniProt position 25, VFGRCELAAAM)
Asp18 = Asp18 (UniProt position 36, KRHGLDNYRGY)
His15 = His15 (UniProt position 33, AAMKRHGLDNY)
Asp101 = Asp101 (UniProt position 119, KKIVSDGNGMN)
Glu35 = Glu35 (UniProt position 53, CAAKFESNFNT)
Asp119 = Asp119 (UniProt position 137, RCKGTDVQAWI)
Asp87 = Asp87 (UniProt position 105, ALLSSDITASV)
Cterm = Cterm (UniProt position 147, IRGCRL-----)
Asp52 = Asp52 (UniProt position 70, TDGSTDYGILQ)

Hen egg-white lysozyme (lysozyme C) (Gallus gallus)
pKa (Glu7): 2.85 ± 0.25 and 2.6 ± 0.2
pKa (Asp18): 2.66 ± 0.08 and 2.8 ± 0.3
pKa (His15): 5.36 ± 0.07 and 5.5 ± 0.2
pKa (Asp101): 4.09 ± 0.07 and 4.5 ± 0.1
pKa (Glu35): 6.20 ± 0.10 and 6.1 ± 0.4
pKa (Asp119): 3.20 ± 0.09 and 3.5 ± 0.3
pKa (Asp87): 2.07 ± 0.15 and 2.2 ± 0.1
pKa (Cterm): 2.75 ± 0.02 and 2.7 ± 0.2
pKa (Asp52): 3.68 ± 0.08 and 3.6 ± 0.3
